Measurements published in PMC9482650, “Quantitative fragmentomics allow affinity mapping of interactomes” (Nature Communications, 2022).

Assays:
Assay in all cases: holdup assay
Design in all cases: key: below the threshold = too weak to quantify, mostly under pKd 3.1 to 4
[1] = target: TJP2_1, Q9UDY2
[2] = target: NHERF4_1, Q86UT5-2
[3] = target: GRIP2_6, Q9C0E4
[4] = target: T1, MPP2, Q14168
T1 sequence (Q14168 180-250, limits assumed, looked up): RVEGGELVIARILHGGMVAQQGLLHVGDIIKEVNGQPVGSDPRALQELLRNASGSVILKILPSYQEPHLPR

[5] = target: T2, DFNB31_3, Q9P202
T2 sequence (Q9P202 811-907, limits assumed, looked up): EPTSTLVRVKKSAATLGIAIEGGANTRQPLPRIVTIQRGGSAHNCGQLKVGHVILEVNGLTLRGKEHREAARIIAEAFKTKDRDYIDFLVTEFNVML

[6] = target: T3, LNX2_2, Q8N448
T3 sequence (Q8N448 334-432, limits assumed, looked up): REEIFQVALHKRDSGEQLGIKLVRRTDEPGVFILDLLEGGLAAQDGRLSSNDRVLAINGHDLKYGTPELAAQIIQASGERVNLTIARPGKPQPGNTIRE

[7] = target: LIMK2, P53671
[8] = target: Inadl_4, Q8NI35
[9] = target: T4, NHERF3_1, Q5T2W1
T4 sequence (Q5T2W1 4-100, limits assumed, looked up): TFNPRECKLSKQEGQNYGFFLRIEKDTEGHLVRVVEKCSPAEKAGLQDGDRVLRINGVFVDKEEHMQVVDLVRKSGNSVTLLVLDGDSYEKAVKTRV

[10] = target: IL16_3, Q14005
[11] = target: MAGI2_3, Q86UL8
[12] = target: PTPN3, P26045
[13] = target: T5, PTPN13_1, Q12923
T5 sequence (Q12923 1088-1188, limits assumed, looked up): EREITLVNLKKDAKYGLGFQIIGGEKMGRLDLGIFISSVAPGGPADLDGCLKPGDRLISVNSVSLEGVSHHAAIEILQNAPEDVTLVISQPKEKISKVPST

[14] = target: SCRIB_2, Q14160
[15] = target: T6, LIN7C, Q9NUP9
T6 sequence (Q9NUP9 88-185, limits assumed, looked up): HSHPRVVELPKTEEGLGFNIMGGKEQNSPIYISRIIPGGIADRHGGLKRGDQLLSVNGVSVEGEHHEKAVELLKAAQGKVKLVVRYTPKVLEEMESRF

[16] = target: T7, DFNB31_2, Q9P202
T7 sequence (Q9P202 274-371, limits assumed, looked up): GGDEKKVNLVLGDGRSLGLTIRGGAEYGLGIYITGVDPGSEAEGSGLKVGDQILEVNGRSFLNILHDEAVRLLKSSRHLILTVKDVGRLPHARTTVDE

[17] = target: T8, GRIP1_5, Q9Y3R0
T8 sequence (Q9Y3R0 568-668, limits assumed, looked up): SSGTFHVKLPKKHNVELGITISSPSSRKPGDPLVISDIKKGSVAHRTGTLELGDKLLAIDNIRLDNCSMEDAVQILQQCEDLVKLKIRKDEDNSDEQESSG

[18] = target: SCRIB_3, Q14160
[19] = target: T9, LNX2_3, Q8N448
T9 sequence (Q8N448 463-564, limits assumed, looked up): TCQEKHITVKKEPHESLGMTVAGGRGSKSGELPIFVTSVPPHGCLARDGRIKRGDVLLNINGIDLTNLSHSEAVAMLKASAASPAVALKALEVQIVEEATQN

[20] = target: LNX1_1, Q8TBB1
[21] = target: DLG1_1, Q12959
[22] = target: MAGI1_2, Q96QZ7
[23] = target: T10, DLG3_3, Q92796
T10 sequence (Q92796 374-475, limits assumed, looked up): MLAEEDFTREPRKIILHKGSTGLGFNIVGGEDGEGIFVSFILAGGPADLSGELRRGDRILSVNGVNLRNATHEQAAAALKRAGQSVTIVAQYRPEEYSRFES

[24] = target: T11, DVL3, Q92997
T11 sequence (Q92997 244-331, limits assumed, looked up): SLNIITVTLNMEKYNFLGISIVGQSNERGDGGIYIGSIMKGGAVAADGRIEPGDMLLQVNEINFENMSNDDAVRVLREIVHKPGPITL

[25] = target: T12, GRIP1_7, Q9Y3R0
T12 sequence (Q9Y3R0 999-1096, limits assumed, looked up): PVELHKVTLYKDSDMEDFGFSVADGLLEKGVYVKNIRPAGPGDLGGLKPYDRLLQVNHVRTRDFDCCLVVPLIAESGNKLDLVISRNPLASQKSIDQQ

[26] = target: FRMPD3, Q5JV73
[27] = plain residues with an end cap or a label only (N-terminal biotin on a linker: ado-ado)
[28] = modified: phospho on T at position -2 from the C-terminal residue

Measured: pKd

MAGI2_3, Q86UL8, sequence (Q86UL8 600-682): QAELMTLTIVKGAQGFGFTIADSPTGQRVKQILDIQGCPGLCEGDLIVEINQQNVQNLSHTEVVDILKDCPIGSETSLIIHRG
LIMK2, P53671, sequence (P53671 143-248): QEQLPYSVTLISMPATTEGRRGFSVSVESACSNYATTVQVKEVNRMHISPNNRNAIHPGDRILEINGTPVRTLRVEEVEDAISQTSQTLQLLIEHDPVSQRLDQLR
SCRIB_2, Q14160, sequence (Q14160 857-960): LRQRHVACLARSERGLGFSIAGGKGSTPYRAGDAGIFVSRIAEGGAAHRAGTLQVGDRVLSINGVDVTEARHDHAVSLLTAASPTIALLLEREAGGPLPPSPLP
FRMPD3, Q5JV73, sequence (Q5JV73 12-100): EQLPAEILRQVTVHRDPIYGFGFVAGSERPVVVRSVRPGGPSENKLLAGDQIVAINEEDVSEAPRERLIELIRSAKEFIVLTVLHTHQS
NHERF4_1, Q86UT5-2, sequence (Q86UT5 other isoform, or with tags, fused parts or gaps): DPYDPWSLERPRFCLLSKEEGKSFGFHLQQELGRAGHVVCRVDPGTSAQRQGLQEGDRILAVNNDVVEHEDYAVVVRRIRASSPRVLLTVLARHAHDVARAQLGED
TJP2_1, Q9UDY2, sequence (Q9UDY2 24-128): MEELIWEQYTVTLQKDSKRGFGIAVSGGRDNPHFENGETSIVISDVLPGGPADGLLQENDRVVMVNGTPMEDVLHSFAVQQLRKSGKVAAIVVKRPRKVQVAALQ
Inadl_4, Q8NI35, sequence (Q8NI35 547-651): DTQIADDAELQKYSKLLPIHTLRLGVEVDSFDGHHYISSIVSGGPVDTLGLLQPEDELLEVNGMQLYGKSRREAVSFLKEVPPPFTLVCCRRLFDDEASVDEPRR
IL16_3, Q14005, sequence (Q14005 1107-1207): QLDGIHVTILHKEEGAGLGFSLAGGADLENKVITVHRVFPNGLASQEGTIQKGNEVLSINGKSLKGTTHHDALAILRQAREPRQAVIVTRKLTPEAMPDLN
SCRIB_3, Q14160, sequence (Q14160 999-1103): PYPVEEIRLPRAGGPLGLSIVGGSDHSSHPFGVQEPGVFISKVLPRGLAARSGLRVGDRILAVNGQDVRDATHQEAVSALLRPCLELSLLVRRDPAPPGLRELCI
GRIP2_6, Q9C0E4, sequence (Q9C0E4 648-740): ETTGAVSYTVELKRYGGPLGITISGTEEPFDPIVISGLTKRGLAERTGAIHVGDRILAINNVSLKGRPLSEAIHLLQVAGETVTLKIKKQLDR
LNX1_1, Q8TBB1, sequence (Q8TBB1 261-371): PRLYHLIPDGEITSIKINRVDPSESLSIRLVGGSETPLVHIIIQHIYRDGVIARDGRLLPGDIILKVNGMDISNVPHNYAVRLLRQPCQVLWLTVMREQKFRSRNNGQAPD
PTPN3, P26045, sequence (P26045 505-587): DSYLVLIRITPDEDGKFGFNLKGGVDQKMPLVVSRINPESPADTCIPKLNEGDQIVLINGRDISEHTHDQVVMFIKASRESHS
MAGI1_2, Q96QZ7, sequence (Q96QZ7 456-580): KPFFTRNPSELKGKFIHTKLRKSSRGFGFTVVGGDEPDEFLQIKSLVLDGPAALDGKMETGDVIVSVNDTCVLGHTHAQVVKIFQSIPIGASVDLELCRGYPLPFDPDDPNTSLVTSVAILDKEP

AQRARSPSDV [GPR12, P47775]
3.98: [12]; [27]
3.79: [20]; [27]
3.59: [5]; [27]
3.7: [11]; [27]
3.57: [6]; [27]
below the threshold: [1]; [27] | [2]; [27] | [3]; [27] | [4]; [27] | [7]; [27] | [8]; [27] | [9]; [27] | [10]; [27] | [13]; [27] | [14]; [27] | [15]; [27] | [16]; [27] | [17]; [27] | [18]; [27] | [19]; [27] | [21]; [27] | [22]; [27] | [23]; [27] | [24]; [27] | [25]; [27] | [26]; [27]

SSRTRRETQL [HPV16-E6_-2P, P03126]
3.89: [5]; [28]
3.79: [9]; [28]
3.94: [15]; [28]
below the threshold: [1]; [28] | [3]; [28] | [4]; [28] | [6]; [28] | [7]; [28] | [8]; [28] | [10]; [28] | [11]; [28] | [13]; [28] | [14]; [28] | [16]; [28] | [17]; [28] | [18]; [28] | [19]; [28] | [20]; [28] | [21]; [28] | [22]; [28] | [23]; [28] | [24]; [28] | [25]; [28] | [26]; [28]
4.37: [2]; [28]
3.92: [12]; [28]

EDGESWEYQI [TRPV6, Q9H1D0]
4.13: [12]; [27]
3.57: [4]; [27]
3.8: [3]; [27]
3.6: [5]; [27]
3.72: [15]; [27]
below the threshold: [1]; [27] | [2]; [27] | [6]; [27] | [7]; [27] | [8]; [27] | [9]; [27] | [10]; [27] | [11]; [27] | [13]; [27] | [14]; [27] | [16]; [27] | [17]; [27] | [19]; [27] | [20]; [27] | [21]; [27] | [22]; [27] | [23]; [27] | [24]; [27] | [25]; [27] | [26]; [27]
4.11: [18]; [27]
